Target: 人IFNAR1 on cells (HEK Blue IFNα/β cells, Daudi cells, human whole blood) (human) (UniProt P17181)
Test: cell-based or functional assay

人IFNAR1 on cells (HEK Blue IFNα/β cells, Daudi cells, human whole blood) (human), sequence (P17181 28-557): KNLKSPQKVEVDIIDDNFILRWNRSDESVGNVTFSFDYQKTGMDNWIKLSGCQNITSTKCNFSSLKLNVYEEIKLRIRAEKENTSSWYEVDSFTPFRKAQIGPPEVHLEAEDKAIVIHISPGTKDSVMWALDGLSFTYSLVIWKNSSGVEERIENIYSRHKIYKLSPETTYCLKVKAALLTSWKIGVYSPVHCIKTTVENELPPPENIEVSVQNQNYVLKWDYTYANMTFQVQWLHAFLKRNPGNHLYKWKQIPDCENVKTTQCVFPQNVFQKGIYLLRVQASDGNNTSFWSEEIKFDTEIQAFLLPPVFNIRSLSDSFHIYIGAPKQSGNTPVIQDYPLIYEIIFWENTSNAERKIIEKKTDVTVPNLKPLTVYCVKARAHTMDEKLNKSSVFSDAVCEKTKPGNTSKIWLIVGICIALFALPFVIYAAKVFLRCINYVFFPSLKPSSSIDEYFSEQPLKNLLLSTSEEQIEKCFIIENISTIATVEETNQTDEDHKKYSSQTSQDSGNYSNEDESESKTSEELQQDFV

抑制干扰素诱导的Daudi细胞增殖活性 (0.8ng/ml IFNα.2b, CellTiter-Glo): 31.7 ng/mL
抑制干扰素诱导的HEK Blue IFNα/β细胞中STAT1/2磷酸化活性 (0.2ng/ml IFNα.2b, QUANTI-Blue OD630nm): 4.43 ng/mL
抑制干扰素诱导的全血释放CXCL10/IP10活性 (8ng/ml IFNα.2b, 40ng/ml TNF-α, sandwich ELISA): 562 ng/mL
Substance: Anifrolumab (antibody)
